Experimental data taken from patent US20200408770A1 (NITTO BOSEKI, published 2020).

Legend:
[1] = target: T1, Ki-67 antigen (MKI67: Marker Of Proliferation Ki-67) (human, UniProt P46013 1-3256); assay: flow cytometry, formalin-fixed T47D cells, thrombin treatment done; share of nuclei above the 95 percentile of the isotype control
T1 construct: Formalin-crosslinked and possibly partly cleaved; also called K-67

[2] = target: T1, Ki-67 antigen (MKI67: Marker Of …); assay: flow cytometry, formalin-fixed SKBr3 cells, thrombin treatment done; share of nuclei above the 95 percentile of the isotype control
[3] = target: T1, Ki-67 antigen (MKI67: Marker Of …); assay: flow cytometry, formalin-fixed T47D cells, thrombin treatment not done; share of nuclei above the 95 percentile of the isotype control
[4] = target: T1, Ki-67 antigen (MKI67: Marker Of …); assay: flow cytometry, formalin-fixed SKBr3 cells, thrombin treatment not done; share of nuclei above the 95 percentile of the isotype control
[5] = target: T1, Ki-67 antigen (MKI67: Marker Of …); assay: flow cytometry, formalin-fixed MDA-MB-231 cells, thrombin treatment done; share of nuclei above the 95 percentile of the isotype control
[6] = target: T1, Ki-67 antigen (MKI67: Marker Of …); assay: flow cytometry, formalin-fixed MDA-MB-231 cells, thrombin treatment not done; share of nuclei above the 95 percentile of the isotype control

T1 sequence (P46013 whole entry): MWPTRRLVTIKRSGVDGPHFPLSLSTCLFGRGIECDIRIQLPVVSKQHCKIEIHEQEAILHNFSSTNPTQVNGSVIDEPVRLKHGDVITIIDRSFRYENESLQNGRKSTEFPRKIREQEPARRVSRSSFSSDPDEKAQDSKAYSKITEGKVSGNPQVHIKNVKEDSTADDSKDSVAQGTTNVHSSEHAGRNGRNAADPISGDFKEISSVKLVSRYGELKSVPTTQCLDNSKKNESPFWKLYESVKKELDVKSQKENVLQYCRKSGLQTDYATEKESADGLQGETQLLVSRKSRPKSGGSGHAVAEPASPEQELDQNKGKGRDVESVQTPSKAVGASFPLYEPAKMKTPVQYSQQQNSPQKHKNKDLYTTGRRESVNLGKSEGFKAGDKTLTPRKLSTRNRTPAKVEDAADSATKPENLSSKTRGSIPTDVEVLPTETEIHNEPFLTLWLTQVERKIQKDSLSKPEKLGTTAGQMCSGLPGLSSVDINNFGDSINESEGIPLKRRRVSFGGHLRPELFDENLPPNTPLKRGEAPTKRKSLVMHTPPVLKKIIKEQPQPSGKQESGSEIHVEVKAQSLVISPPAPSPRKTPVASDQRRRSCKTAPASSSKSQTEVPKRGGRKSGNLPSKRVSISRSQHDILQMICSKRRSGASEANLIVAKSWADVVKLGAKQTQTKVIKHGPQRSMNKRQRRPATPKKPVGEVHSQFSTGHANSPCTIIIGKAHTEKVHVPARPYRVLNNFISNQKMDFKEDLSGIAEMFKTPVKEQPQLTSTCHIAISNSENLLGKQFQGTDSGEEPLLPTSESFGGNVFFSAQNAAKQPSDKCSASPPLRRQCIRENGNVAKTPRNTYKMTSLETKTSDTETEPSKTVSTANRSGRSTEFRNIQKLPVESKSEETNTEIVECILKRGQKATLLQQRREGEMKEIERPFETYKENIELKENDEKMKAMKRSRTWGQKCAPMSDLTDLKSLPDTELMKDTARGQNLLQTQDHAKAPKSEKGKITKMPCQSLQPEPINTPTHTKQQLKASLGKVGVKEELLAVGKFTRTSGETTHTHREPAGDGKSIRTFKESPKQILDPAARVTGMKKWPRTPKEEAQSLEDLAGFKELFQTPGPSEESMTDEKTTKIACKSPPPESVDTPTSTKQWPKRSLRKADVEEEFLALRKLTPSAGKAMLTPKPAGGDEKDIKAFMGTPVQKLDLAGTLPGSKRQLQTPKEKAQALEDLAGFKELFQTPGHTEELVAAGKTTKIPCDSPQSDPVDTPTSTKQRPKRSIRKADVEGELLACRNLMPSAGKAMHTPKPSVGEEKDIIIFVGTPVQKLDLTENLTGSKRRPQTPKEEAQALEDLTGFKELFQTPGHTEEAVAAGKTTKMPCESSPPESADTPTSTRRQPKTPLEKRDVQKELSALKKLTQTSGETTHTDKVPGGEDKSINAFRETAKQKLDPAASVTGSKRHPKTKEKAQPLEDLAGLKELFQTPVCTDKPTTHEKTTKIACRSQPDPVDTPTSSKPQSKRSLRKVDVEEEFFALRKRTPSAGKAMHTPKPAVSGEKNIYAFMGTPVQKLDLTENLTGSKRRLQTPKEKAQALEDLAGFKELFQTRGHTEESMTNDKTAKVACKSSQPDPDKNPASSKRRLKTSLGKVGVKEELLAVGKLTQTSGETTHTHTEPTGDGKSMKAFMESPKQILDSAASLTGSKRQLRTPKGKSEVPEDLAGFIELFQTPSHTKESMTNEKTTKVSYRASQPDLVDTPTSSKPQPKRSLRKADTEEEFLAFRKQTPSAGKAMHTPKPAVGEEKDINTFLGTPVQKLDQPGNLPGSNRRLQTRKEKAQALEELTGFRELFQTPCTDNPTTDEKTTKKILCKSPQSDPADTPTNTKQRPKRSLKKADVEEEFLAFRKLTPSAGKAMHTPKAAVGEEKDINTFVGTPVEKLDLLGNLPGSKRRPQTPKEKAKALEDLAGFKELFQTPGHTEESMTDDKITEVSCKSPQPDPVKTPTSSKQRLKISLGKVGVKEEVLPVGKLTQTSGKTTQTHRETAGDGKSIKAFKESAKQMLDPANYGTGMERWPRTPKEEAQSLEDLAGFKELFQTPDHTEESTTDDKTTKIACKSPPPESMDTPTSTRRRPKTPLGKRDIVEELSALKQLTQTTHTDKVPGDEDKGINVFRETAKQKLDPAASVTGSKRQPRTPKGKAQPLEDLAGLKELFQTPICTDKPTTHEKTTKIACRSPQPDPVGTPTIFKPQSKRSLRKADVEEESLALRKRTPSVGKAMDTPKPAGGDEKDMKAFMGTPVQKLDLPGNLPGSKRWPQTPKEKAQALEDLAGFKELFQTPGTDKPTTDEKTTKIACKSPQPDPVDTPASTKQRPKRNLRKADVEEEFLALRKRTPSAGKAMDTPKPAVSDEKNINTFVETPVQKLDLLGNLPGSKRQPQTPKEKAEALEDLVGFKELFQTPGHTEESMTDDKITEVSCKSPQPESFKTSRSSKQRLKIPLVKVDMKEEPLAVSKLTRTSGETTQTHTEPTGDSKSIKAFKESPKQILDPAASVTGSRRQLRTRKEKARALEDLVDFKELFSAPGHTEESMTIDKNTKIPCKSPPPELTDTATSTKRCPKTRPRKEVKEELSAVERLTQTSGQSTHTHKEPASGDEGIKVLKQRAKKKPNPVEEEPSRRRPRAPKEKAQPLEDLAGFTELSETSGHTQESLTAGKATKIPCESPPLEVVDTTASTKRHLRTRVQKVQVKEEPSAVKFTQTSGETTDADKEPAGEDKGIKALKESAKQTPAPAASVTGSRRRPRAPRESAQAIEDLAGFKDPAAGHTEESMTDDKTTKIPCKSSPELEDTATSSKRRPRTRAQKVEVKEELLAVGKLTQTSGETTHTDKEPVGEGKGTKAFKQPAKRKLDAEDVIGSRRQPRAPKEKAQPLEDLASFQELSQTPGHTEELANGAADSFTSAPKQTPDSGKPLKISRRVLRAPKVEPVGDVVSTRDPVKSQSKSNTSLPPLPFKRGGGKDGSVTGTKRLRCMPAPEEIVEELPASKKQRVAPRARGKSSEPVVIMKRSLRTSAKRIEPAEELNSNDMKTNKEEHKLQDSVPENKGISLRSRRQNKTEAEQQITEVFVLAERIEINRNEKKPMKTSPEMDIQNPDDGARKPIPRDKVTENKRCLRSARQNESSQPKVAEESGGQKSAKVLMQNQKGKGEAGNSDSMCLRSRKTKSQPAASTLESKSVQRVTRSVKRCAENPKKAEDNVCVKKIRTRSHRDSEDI

B1: Ki-67 antibody (Dako, clone: MIB-1, mouse monoclonal antibody) (antibody, V domains shown)
VH: EVQLQESGPGILQPSQTLSLTCSFSSYHFGDIVGWIRQPSGKGLEWLAHNWKDINDNKYNTALKSRLTISKDTSNNQVFLKIASVDTADTATYYCASYGHYDHWGQGSTLTVSS
VL: DIVMTQSPLSLPVSLGDQASISCRSSSQSVINGQSNYLEWYLQKPGQSPKLLIYLVSNRFSGVPDRFSGSGSGTDFTLKISRVEAEDLGVYYCFQSGVHWPTFGGGTKL
Ki-67-positive ratio [1]: 37.3 | Ki-67-positive ratio [2]: 19.8 | Ki-67-positive ratio [3]: 24.3 | Ki-67-positive ratio [4]: 6.52 | Ki-67-positive ratio [5]: 39.9 | Ki-67-positive ratio [6]: 33.1
